Assay results as given in patent US20160289280A1, “Fusion protein of recombinant ganoderma immunoregulatory protein and human serum albumin, preparation method thereof, and application thereof” (priority 2013, published 2016).
Values joined by “and” are separate entries in the source; they are usually repeats but may differ in a detail not shown here. Equal entries are not always repeated. Marks after values point to notes of the source that are not given here.

B1: rLZ-8: recombinant ganoderma immunoregulatory protein which is not fused, comparator (protein, UniProt P14945 2-111, looked up)
Immunomodulatory protein Ling …: SDTALIFRLAWDVKKLSFDYTPNWGRGNPNNFIDTVTFPKVLTDKAYTYRVAVSGRNLGVKPSYAVESDGSQKVNFLEYNSGYGIADTNTIQVFVVDPDTNNDFIIAQWN
B2: rLZ-8-HSA: fusion protein of ganoderma immunoregulatory protein (LZ-8) and human serum albumin, linker GGGGSS, SEQ ID NO. 1 (protein)
chain: SDTALIFRLAWDVKKLSFDYTPNWGRGNPNNFIDTVTFPKVLTDKAYTYRVAVSGRNLGVKPSYAVESDGSGKVNFLEYNSGYGIADTNTIGVFVVDPDTNNDFIIAGWNGGGGSSMKWVTFISLLFLFSSAYSRGVFRRDAHKSEVAHRFKDLGEENFKALVLIAFAGYLGGCPFEDHVKLVNEVTEFAKTCVADESAENCDKSLHTLFGDKLCTVATLRETYGEMADCCAKGEPERNECFLGHKDDNPNLPRLVRPEVDVMCTAFHDNEETFLKKYLYEIARRHPYFYAPELLFFAKRYKAAFTECCGAADKAACLLPKLDELRDEGKASSAKGRLKCASLGKFGERAFKAWAVARLSGRFPKAEFAEVSKLVTDLTKVHTECCHGDLLECADDRADLAKYICENGDSISSKLKECCEKPLLEKSHCIAEVENDEMPADLPSLAADFVESKDVCKNYAEAKDVFLGMFLYEYARRHPDYSVVLLLRLAKTYETTLEKCCAAADPHECYAKVFDEFKPLVEEPGNLIKGNCELFEGLGEYKFGNALLVRYTKKVPGVSTPTLVEVSRNLGKVGSKCCKHPEAKRMPCAEDYLSVVLNGLCVLHEKTPVSDRVTKCCTESLVNRRPCFSALEVDETYVPKEFNAETFTFHADICTLSEKERGIKKGTALVELVKHKPKATKEGLKAVMDDFAAFVEKCCKADDKETCFAEEGKKLVAASGAALGL
modifications: rLZ-8-HSA sequence

Key:
[1] = test system: platelets; assay: treatment of mouse thrombocytopenia caused by cyclophosphamide, platelet count; format: in vivo; conditions: for platelets after: after cyclophosphamide, before treatment; for platelets before: baseline before cyclophosphamide
Method: Experimental medicine: preparing a 19.25 μg·kg^−1 and a 9.625 μg·kg^−1 dosage groups of the recombinant ganoderma immunoregulatory protein (rLZ-8) with sterile injection water, and 0.2 ml per mouse; and preparing a 19.25 μg·kg^−1 and a 9.625 μg·kg^−1 dosage groups (judging from the LZ-8) of the fusion protein rLZ-8-HSA of the recombinant ganoderma immunoregulatory protein.
Positive control medicine: thrombopoietin (THPO) from Shenyang 3SBio Inc., with a dosage of 770 μg·kg^−1/d and 0.2 ml per mouse.
Chemotherapy medicine: cyclophosphamide (Cy) from Jiangsu Hengrui Medicine Co., Ltd, whose batch number is 12112121, 200 mg/bottle; preparing into 100 mg·kg^−1, 0.2 ml per mouse with sterile injection water.
Platelet dilution: urea: 1.3 g; sodium citrate: 0.5 g; formaldehyde: 0.1 ml; adding distilled water to 100 ml for mixing, then filtering for further utilization.
Experimental method: dividing experimental animals into 5 groups, wherein each group comprises 10 mice with 5 males and 5 females; except for a normal control group (injected with normal saline having an equal volume), abdominally injecting the cyclophosphamide to the mice with a dosage of 100 mg·kg^−1, 0.2 ml per mouse per day, and lasting for three days; when a platelet quantity decreased to below 300×10^9/L, subcutaneously injecting the rLZ-8, the fusion protein rLZ-8-HAS (19.25 μg·kg^−1, 9.625 μg·kg^−1, 0.2 ml·per mouse per day) and the positive medicine (THPO 770 μg·kg^−1, 0.2 ml·per mouse per day) according to the above groups with corresponding dosages, and injecting the normal saline having the equal volume to the normal control group and a CP group; respectively sampling mouse tail vein blood 3 d, 7 d and 14 d after treatment, counting platelets with high power lens, wherein results thereof are listed in table 7.

[2] = test system: mouse S180 Ehrlich ascites tumor; assay: in vitro inhibition effect on mouse S180 Ehrlich ascites tumor, WST-1 method; format: cell-based; conditions: 24 h, x ± s, n = 9
Method: In vitro experiment: testing the inhibition effect of the fusion protein rLZ-8-HSA on the mouse 5180 Ehrlich ascites tumor through the WST-1 method, preparing tissue suspension of the mouse S180 Ehrlich ascites tumor; adding 100 μl the tissue suspension into 900 μl 2% glacial acetic acid and counting with a microscope; adjusting a tissue concentration to 2×10^5/ml with DMEM comprising 2% calf serum; respectively preparing the fusion protein rLZ-8-HSA and the rLZ-8 with same molar concentration gradient, wherein there are 3 gradient concentrations, each concentration occupies 9 wells with 100 μl per well; adding tissue suspension with a concentration of 2×10^5/ml with 100 μl per well; shaking for evenly mixing, and then putting into a 37° C., 5% CO2 incubation device to incubate for 24 h; after incubation, adding WST-1 with 20 μl per well; putting into the 37° C., 5% CO2 incubation device to incubate for 3 h, then testing OD450 (with a BIO-RAD); wherein results are listed in table 5.

[3] = test system: mouse melanoma cells B16-F10; assay: mouse B16-F10 transplanted tumor model, in situ tumor weight; format: in vivo; conditions: tail vein once a day, 28 days
Method: In vivo experiment: firstly, establishing a mouse tumor mould, wherein mouse melanoma cells B16-F10 is cultured with the DMEM comprising 10% fetal calf serum at 37° C. in a CO2 incubation device; slowly subcutaneously injecting 200 μl B16-F10 cell suspension (comprising 1×10^7 cells) with a 1 ml injector at mouse dorsal-ventral skin, so as to establish a mouse transplanted tumor mould.

[4] = test system: mouse transplanted tumor S180; assay: subcutaneous inhibition of mouse transplanted tumor S180; format: in vivo; conditions: tail vein, 10 days
Method: In vivo experiment: experimental material: mice weighing 18-22 g from Laboratory Animal Center of Jilin University; Ehrlich ascites tumor cell strains are provided by a lab of the inventor; cytoxan (CTX) is from Jiangsu Hengrui Medicine Co., Ltd, whose batch number is 06101921; 5180 ascites tumor and soild tumor experimental groups respectively comprises a normal control group, a negative control group, a positive control group, an rLZ-8 low-dosage group (0.25 mg·kg^−1), an rLZ-8 middle-dosage group (0.5 mg·kg^−1), an rLZ-8 high-dosage group (1 mg·kg^−1), an rLZ-8-HSA low-dosage group (0.25 mg·kg^−1), an rLZ-8-HSA middle-dosage group (0.5 mg·kg^−1), and an rLZ-8-HSA high-dosage group (1 mg·kg^−1), wherein dosages of the rLZ-8-HSA groups are judged from LZ-8 dosage, wherein each group comprises 10 mice.
tumor inhibition rate (%)=(average tumor weight of control groups−average tumor weight of experimental groups)/average tumor weight of control groups×100%.

[5] = test system: mouse spleen cells; assay: promotion of mouse spleen cell proliferation, WST-1 method; format: cell-based; conditions: for OD450, promotion of cell proliferation: 24 h, x ± s, n = 9
Method: Testing effects of the fusion proteins on mouse spleen cell proliferation by a WST-1 method, which illustrates strength of biological activity, wherein according to the present invention, BALB/c female mice are used, whose weight is controlled at 20-22 g; executing the mice by stretching necks thereof, taking out spleens under a sterile condition, and putting into a plate with 5 ml DMEM comprising 10% calf serum; cracking the spleens with tweezers, filtering tissue suspension with gauze for removing tissue blocks, and preparing cell suspension of spleen cells; adding 100 μl the tissue suspension into 900 μl 2% glacial acetic acid for counting with a microscope; adjusting a cell concentration to 5×10^6/ml with DMEM comprising 2% calf serum; respectively preparing the fusion proteins and the rLZ-8 with same molar concentration gradient, wherein there are 3 gradient concentrations, each concentration occupies 9 wells with 100 μl per well; adding tissue suspension with a concentration of 5×10^6/ml with 100 μl per well; shaking for evenly mixing, and then putting into a 37° C., 5% CO2 incubation device to incubate for 24 h; after incubation, adding WST-1 with 20 μl per well; putting into the 37° C., 5% CO2 incubation device to incubate for 3 h, then testing OD450 (with a BIO-RAD); wherein results are listed in table 1.

[6] = 9.625 μg·kg^−1 (LZ-8) subcutaneously per day
[7] = 19.25 μg·kg^−1 (LZ-8) subcutaneously per day
[8] = low-dosage 0.25 mg·kg^−1 (LZ-8)
[9] = middle-dosage 0.5 mg·kg^−1 (LZ-8)

Row | Molecule | platelets 3rd day [1, 6] | platelets 7th day [1, 6] | platelets 14th day [1, 6] | platelets after ([1]; 9.625 μg·kg^−1 group) | platelets before ([1]; 9.625 μg·kg^−1 group) | platelets 3rd day [1, 7] | platelets 7th day [1, 7] | platelets 14th day [1, 7] | platelets after ([1]; 19.25 μg·kg^−1 group) | platelets before ([1]; 19.25 μg·kg^−1 group) | OD450, inhibition effect on mouse S180 Ehrlich ascites tumor ([2]; protein 5.0 × 10^−9 mol/L) | OD450, inhibition effect on mouse S180 Ehrlich ascites tumor ([2]; protein 10.0 × 10^−9 mol/L) | OD450, inhibition effect on mouse S180 Ehrlich ascites tumor ([2]; protein 15.0 × 10^−9 mol/L) | tumor inhibition rate ([3]; high-dosage 492 μg/kg (LZ-8)) [%] | tumor weight ([3]; high-dosage 492 μg/kg (LZ-8)) [g] | tumor inhibition rate ([3]; low-dosage 123 μg/kg (LZ-8)) [%] | tumor weight ([3]; low-dosage 123 μg/kg (LZ-8)) [g] | tumor inhibition rate ([3]; middle-dosage 246 μg/kg (LZ-8)) [%] | tumor weight ([3]; middle-dosage 246 μg/kg (LZ-8)) [g] | Inhibition rate ([4]; high-dosage 1 mg·kg^−1 (LZ-8)) | also measured
1 | B1 | 483 ± 0.45 *10^9/L | 585 ± 0.78 *10^9/L | 898 ± 0.61* *10^9/L | 201 ± 0.41 *10^9/L | 839 ± 0.40 *10^9/L | 501 ± 0.48 *10^9/L | 680 ± 0.28 *10^9/L | 1021 ± 0.31** *10^9/L | 226 ± 0.78 *10^9/L | 946 ± 0.45 *10^9/L | 0.453 ± 0.23 | 0.366 ± 0.31 | 0.345 ± 0.27 | 83.04 ± 0.51 | 0.25 ± 0.04 | 56.72 ± 0.41 | 0.53 ± 0.21 | 64.91 ± 0.77 | 0.43 ± 0.17 | 45.5% and 43.5% | tumor weight ([4]; high-dosage 1 mg·kg^−1 (LZ-8)): 0.57 ± 0.03 g; Inhibition rate [4, 8]: 16.8% and 17.8%; tumor weight [4, 8]: 0.83 ± 0.03 g; Inhibition rate [4, 9]: 25.7% and 26.7%; tumor weight [4, 9]: 0.74 ± 0.02 g; OD450, promotion of cell proliferation ([5]; protein 5.0 × 10^−9 mol/L): 0.739 ± 0.23; OD450, promotion of cell proliferation ([5]; protein 10.0 × 10^−9 mol/L): 1.197 ± 0.31; OD450, promotion of cell proliferation ([5]; protein 15.0 × 10^−9 mol/L): 1.567 ± 0.27
2 | B2 | 624 ± 0.43* *10^9/L | 697 ± 0.43* *10^9/L | 929 ± 0.61** *10^9/L | 261 ± 0.52 *10^9/L | 843 ± 0.65 *10^9/L | 760 ± 0.38* *10^9/L | 978 ± 0.67* *10^9/L | 1035 ± 0.78** *10^9/L | 246 ± 0.36 *10^9/L | 852 ± 0.82 *10^9/L | 0.408 ± 0.21 | 0.233 ± 0.18 | 0.127 ± 0.15 | 89.51 ± 0.88 | 0.13 ± 0.05 | 71.77 ± 0.31 | 0.35 ± 0.11 | 78.22 ± 0.47 | 0.27 ± 0.14 | 29.3% | platelet recovery compared with the CP group ([1]; rLZ-8-HSA groups, p<0.05): returned to normal at the third day; tumor weight ([4]; high-dosage 1 mg·kg^−1 (LZ-8)): 0.21 ± 0.08 g; Inhibition rate [4, 8]: 27.7%; tumor weight [4, 8]: 0.73 ± 0.03 g; Inhibition rate [4, 9]: 56.4%; tumor weight [4, 9]: 0.44 ± 0.05 g; OD450, promotion of cell proliferation ([5]; protein 5.0 × 10^−9 mol/L): 0.936 ± 0.31; OD450, promotion of cell proliferation ([5]; protein 10.0 × 10^−9 mol/L): 1.680 ± 0.38; OD450, promotion of cell proliferation ([5]; protein 15.0 × 10^−9 mol/L): 2.373 ± 0.35; promotion of spleen cell proliferation compared with rLZ-8 ([5]; same protein concentration): better than the rLZ-8
